Test results reported in patent US20240218337A1.

B1: example_3 (protein, part only; not given: constant regions, Gas6 trap, linker, not shown: a dimerising Fc or GST; small tags and cut ends)
heavy, part: EVQLQESGPGLVKPSQTLSLTCTVSGYSITSDYWNWIRKPPGKGLEYMGYISYTGSTYYNPSLKSRITISRDTSKNQYSLKLSSVTAADTAVYYCARRGEWLSPFAYWGQGTLVTVSS
light: DIQMTQSPSSLSASVGDRVTITCKSSQSLLYSSNQKNSLAWYQQKPGKAPKLLIYWASTRESGVPSRFSGSGSGTDFTLTISSLQPEDFATYYCQQYYTYPFTFGQGTKLEIK
B2: example_5 (protein, part only; not given: constant regions, Gas6 trap, linker, not shown: a dimerising Fc or GST; small tags and cut ends)
heavy, part: EVQLQESGPGLVKPSQTLSLTCTVSGYSITSDYWDWIRKPPGKGLEYMGYISYTGSTYYNPSLRSRITISRDTSKNQYSLKLSSVTAADTAVYYCARRGGWLSPFVYWGQGTLVTVSS
light: DIQMTQSPSSLSASVGDRVTITCKSRQSLLFSSNQKNSLAWYQQKPGKAPKLLIYWASTRESGVPSRFSGSGSGTDFTLTISSLQPEDFATYYCQQYYTYPFTFGQGTKLEIK
B3: example_7 (protein, part only; not given: Fc, Gas6 trap, linkers, not shown: small tags and cut ends)
chain, part: EVQLQESGPGLVKPSQTLSLTCTVSGYSITSDYWNWIRKPPGKGLEYMGYISYTGSTYYNPSLKSRITISRDTSKNQYSLKLSSVTAADTAVYYCARRGEWLSPFAYWGQGTLVTVSSDIQMTQSPSSLSASVGDRVTITCKSSQSLLYSSNQKNSLAWYQQKPGKAPKLLIYWASTRESGVPSRFSGSGSGTDFTLTISSLQPEDFATYYCQQYYTYPFTFGQGTKLEIK
B4: example_8 (protein, part only; not given: Fc, Gas6 trap, linkers, not shown: small tags and cut ends)
chain, part: EVQLQESGPGLVKPSQTLSLTCTVSGYSITSDYWDWIRKPPGKGLEYMGYISYTGSTYYNPSLRSRITISRDTSKNQYSLKLSSVTAADTAVYYCARRGGWLSPFVYWGQGTLVTVSSDIQMTQSPSSLSASVGDRVTITCKSRQSLLFSSNQKNSLAWYQQKPGKAPKLLIYWASTRESGVPSRFSGSGSGTDFTLTISSLQPEDFATYYCQQYYTYPFTFGQGTKLEIK

Columns and labels:
[1] = target: human Gas6 recombinant protein (human) (UniProt Q14393); test: ELISA, plate-coated test molecule, serially diluted hGas6
[2] = target: PD-L1 on PD-L1 aAPC/CHO-K1 cells (human) (UniProt Q9NZQ7); test: cell-based or functional assay
[3] = target: Recombinant human PD-L1 protein (human) (UniProt Q9NZQ7); test: ELISA, plate-coated recombinant human PD-L1, anti-human IgG-HRP

Chain of UniProt Q14393 (Q14393 49-678 limits assumed): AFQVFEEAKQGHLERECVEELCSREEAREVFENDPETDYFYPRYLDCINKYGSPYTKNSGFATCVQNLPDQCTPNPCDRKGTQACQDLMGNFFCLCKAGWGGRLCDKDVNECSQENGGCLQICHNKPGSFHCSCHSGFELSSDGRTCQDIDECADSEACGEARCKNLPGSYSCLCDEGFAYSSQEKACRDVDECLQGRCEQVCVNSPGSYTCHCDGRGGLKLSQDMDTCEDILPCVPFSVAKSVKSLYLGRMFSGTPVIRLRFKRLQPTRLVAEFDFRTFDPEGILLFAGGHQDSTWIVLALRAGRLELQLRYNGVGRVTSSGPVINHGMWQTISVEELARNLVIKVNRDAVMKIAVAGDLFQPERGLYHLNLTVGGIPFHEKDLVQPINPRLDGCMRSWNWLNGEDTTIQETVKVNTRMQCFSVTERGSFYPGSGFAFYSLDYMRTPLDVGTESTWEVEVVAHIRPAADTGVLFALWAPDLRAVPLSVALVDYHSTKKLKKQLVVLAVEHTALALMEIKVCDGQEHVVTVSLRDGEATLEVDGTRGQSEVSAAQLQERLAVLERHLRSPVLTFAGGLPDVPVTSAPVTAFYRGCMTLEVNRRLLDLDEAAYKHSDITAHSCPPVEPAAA

EC50 [1] | PD-L1/PD-1 blockade assay, EC50 (luciferase in PD-1 effector cells) [2] | EC50 [3] | Molecule
< 3 nM | – | – | Axl-Fc (Fc fusion)
– | < 3 nM | < 0.1 nM | B1
– | < 3 nM | < 0.1 nM | B2
– | < 3 nM | < 0.1 nM | B3
– | < 3 nM | < 0.1 nM | B4
